Biological target: BLyS receptors on human B cells (human (endogenous in peripheral blood B cells))

Substance | nuclear localization of NF-κB p52 in human B cells after 48 h with 100 ng/ml BLyS (Western blot of nuclear extracts, three B cell preparations), fold over unstimulated B cells
recombinant human FLAG-tagged BLyS (from UniProt Q9Y275 134-285) (ligand) | 7.1 fold
FLAG-tagged murine BLyS (from UniProt Q9WU72 127-309) (ligand) | 2.4 fold

— article PMC2527131
